The values that follow come from paper PMC9546773, “Prediction of protein–ligand binding affinity from sequencing data with interpretable machine learning”.

The chains are these.
B1: probe 1 (dsDNA)
DNA 1: GTTCAGAGTTCTACAGTCCGACCTGGTTTAATTGGTCCAGGACTCGGACCTGGACTAGG
DNA 2: CCTAGTCCAGGTCCGAGTCCTGGACCAATTAAACCAGGTCGGACTGTAGAACTCTGAAC
B2: probe 4 (dsDNA)
DNA 1: B1 DNA 1 with T33G
DNA 2: B1 DNA 2 with A27C
B3: probe 2 (dsDNA)
DNA 1: B1 DNA 1 with A30G
DNA 2: B1 DNA 2 with T30C
B4: probe 3 (dsDNA)
DNA 1: B1 DNA 1 with A31T
DNA 2: B1 DNA 2 with T29A

Numbering of substitutions follows the chain as printed.

Dll (DllΔN), sequence (P20009 124-327, stated change not applied): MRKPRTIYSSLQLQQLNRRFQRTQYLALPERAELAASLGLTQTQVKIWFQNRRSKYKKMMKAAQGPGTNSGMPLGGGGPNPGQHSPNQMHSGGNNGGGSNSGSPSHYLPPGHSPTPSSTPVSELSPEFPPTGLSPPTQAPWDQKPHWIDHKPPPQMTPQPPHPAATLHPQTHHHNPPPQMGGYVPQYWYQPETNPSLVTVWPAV

The series has as its target Dll (DllΔN) (Drosophila melanogaster, UniProt P20009 124-327). The series is described as follows: EMSA; 1:1 mix of dialysis buffer (20 mM HEPES pH 8.0, 200 mM NaCl, 10% glycerol, 2 mM MgCl2, 0.05% Tween 20) and DNA mix; final about 150 mM NaCl, 10 mM Tris pH 7.5. As to conditions: tags: His6 (kept); label: Cy5 on the primer strand. For orientation: Mobility shift assays separate free from complexed probe on a gel.
Regarding B1, binding was put at a Kd of 5.2 nM.

In the case of B2, the equilibrium dissociation constant (Kd) – broadly, the equilibrium constant for the complex coming apart – was determined as 40.8 nM.

Molecule B3 gave a Kd of 92.7 nM.

B4 gave a dissociation constant (Kd) of about 2640 nM.
